Measurements taken from patent publication US10125171 (APELLIS PHARMACEUTICALS, dated 2018).

B1: (CA28-AEEAc)8-PEG40k (peptide)
peptide: ICVWQDWGAHRCTK
modifications: N-terminal acetyl; 1-methyl-tryptophan at position 4; disulfide Cys2-Cys12; AEEAc spacer between Thr13 and the C-terminal Lys; Lys side chain coupled to one arm of an eight-arm 40 kD PEG (hexaglycerol octa(succinimidyloxyglutaryl)polyoxyethylene); C-terminal amide
B2: CA28-AEEAc-Lys-(PEG40k) (peptide)
peptide: ICVWQDWGAHRCTK
modifications: N-terminal acetyl; 1-methyl-tryptophan at position 4; disulfide Cys2-Cys12; AEEAc (8-amino-3,6-dioxaoctanoic acid) spacer between Thr13 and the C-terminal Lys; linear monofunctional 40 kD PEG coupled (NHS ester) to the Lys side chain; C-terminal amide
B3: CA28-AEEAc-Lys-(PEG30k) (peptide)
peptide: ICVWQDWGAHRCTK
modifications: N-terminal acetyl; 1-methyl-tryptophan at position 4; disulfide Cys2-Cys12; AEEAc (8-amino-3,6-dioxaoctanoic acid) spacer between Thr13 and the C-terminal Lys; linear monofunctional 30 kD PEG coupled (NHS ester) to the Lys side chain; C-terminal amide

Molecular target: human complement component C3 (human, UniProt P01024 23-1663)
Sequence (P01024 23-1663 limits assumed): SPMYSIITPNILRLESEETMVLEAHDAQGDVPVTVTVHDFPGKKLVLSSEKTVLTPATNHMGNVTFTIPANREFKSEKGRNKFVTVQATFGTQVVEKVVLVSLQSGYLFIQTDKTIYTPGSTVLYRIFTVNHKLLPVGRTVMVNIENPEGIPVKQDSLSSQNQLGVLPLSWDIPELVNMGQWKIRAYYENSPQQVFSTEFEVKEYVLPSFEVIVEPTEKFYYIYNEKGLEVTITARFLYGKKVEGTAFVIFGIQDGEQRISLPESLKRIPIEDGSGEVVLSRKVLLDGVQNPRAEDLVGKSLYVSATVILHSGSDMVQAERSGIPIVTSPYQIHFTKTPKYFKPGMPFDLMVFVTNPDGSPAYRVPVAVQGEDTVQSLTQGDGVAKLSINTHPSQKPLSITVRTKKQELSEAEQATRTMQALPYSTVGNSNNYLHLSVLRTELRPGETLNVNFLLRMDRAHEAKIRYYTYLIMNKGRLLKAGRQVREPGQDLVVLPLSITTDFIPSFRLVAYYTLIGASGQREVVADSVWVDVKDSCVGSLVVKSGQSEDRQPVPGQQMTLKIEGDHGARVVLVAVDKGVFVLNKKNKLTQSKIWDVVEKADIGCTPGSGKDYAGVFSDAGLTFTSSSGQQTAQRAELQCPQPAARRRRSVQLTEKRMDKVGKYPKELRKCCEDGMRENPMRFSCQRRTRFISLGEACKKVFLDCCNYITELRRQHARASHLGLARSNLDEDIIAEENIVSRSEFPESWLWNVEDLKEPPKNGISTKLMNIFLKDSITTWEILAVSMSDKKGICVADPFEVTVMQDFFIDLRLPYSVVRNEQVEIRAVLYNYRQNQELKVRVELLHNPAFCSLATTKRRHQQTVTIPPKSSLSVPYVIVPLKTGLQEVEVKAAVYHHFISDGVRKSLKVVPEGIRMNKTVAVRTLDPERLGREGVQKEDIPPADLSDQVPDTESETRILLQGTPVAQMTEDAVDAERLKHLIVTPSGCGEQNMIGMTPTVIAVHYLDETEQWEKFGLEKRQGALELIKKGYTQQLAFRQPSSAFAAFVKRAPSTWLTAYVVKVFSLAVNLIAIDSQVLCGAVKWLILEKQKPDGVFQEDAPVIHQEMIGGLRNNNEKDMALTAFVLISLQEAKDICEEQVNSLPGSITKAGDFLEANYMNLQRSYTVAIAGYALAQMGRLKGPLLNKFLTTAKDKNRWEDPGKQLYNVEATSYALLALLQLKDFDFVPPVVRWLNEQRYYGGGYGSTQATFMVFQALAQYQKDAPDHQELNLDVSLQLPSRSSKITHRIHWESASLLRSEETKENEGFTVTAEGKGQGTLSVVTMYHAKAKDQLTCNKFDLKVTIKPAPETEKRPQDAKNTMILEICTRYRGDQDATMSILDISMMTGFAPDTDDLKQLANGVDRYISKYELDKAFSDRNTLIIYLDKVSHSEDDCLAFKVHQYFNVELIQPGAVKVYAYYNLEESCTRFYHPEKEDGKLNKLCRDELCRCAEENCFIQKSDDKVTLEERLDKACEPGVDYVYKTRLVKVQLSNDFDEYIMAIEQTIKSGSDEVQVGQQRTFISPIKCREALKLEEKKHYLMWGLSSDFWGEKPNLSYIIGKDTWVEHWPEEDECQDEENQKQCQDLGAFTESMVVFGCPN
Assay: cell-based or functional assay

Binder	IC50 on a molar basis (corrected for 7.5 CA28 moieties per molecule), classical complement inhibition assay (C3b deposition ELISA, human plasma) [nM]	activity relative to CA28 on a molar basis, classical complement inhibition assay [%]	complement inhibiting activity relative to CA28 on a molar basis
B1	~260	–	–
B2	–	~30	~30 % of the activity of CA28
B3	–	~30	~30 % of the activity of CA28
